# Assay results reported in the supplement of paper PMC10567573.
# B1: PSMB5 addG (peptide)
# chain: DGWIRVSSDNVADLHEKYSGSTPG
# B2: SNF8 addG (peptide)
# chain: LPALFTDLYSQEITAEEAREALPG
# B3: TRPA1 addG (peptide)
# chain: EQRNSRWNTVLRAVKAKTHHLEPG
# B4: POLD2 addG (peptide)
# chain: CQPISFSGFGAEDDDLGGLGLGPG
# Test: protein stability index of a GFP-peptide fusion (GPS, HEK-293T) (PSI 1-6); higher = more stable
# Conditions: c terminus: native
# 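Also: lentivirally expressed fusion library, cells FACS-sorted into six equal-sized GFP/DsRed ratio bins, PSI computed from sequencing read fractions per bin weighted by bin number.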
protein,measurement,setting,value
B1,protein stability index,parent: NP_002788.1,3
B2,protein stability index,parent: NP_009172.2,2.8
B3,protein stability index,parent: NP_015628.1,3.92
B4,protein stability index,parent: NP_006221.1,2.37
